Laboratory results as given in publication PMC9900698, “Phosphorylation Regulation of a Histone-like HU Protein from Deinococcus radiodurans”.

T1: DrHU WT (Deinococcus radiodurans R1 (ATCC13939), UniProt Q9RZ89 1-122)
T1 sequence: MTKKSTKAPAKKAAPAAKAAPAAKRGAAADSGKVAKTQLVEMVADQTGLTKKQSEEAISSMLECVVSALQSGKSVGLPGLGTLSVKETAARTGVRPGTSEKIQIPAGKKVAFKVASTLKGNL


Target: T1, DrHU WT
Assay: EMSA; 10 mM Mg2+; EMSA: 50 mM NaCl, 20 mM Tris-HCl pH 8.0, 0.1 mg/ml BSA, 3 mM DTT, 0.1 mM EDTA, 10% glycerol, 10 mM MgCl2, 50 nM DNA, 0-3200 nM DrHU, room temperature 20 min; 22% native PAGE in 1x TB
Settings: protein: recombinant; tags: N-terminal His-MBP (pET28a-HMT), removed by TEV; chain copies: 2; label: 5'-FAM; blunt

| Binder | Kd [nM] |
| --- | --- |
| Duplex DNA (24bp) (dsDNA) DNA 1: TCAATTATGTCAATGACATAAAAG DNA 2: CTTTTATGTCATTGACATAATTGA | 1480 ± 41.8 |
| Duplex DNA (36bp) (dsDNA) DNA 1: GCAGAGTCAATTATGTCAATGACATAAAAGGCTCAG DNA 2: CTGAGCCTTTTATGTCATTGACATAATTGACTCTGC | 1350 ± 200 |
| Duplex DNA (48bp) (dsDNA) DNA 1: TAACAAGCAGAGTCAATTATGTCAATGACATAAAAGGCTCAGGCCTTC DNA 2: GAAGGCCTGAGCCTTTTATGTCATTGACATAATTGACTCTGCTTGTTA | 449 ± 29.6 |
